For this data set, the target named is T1, recombinant human ANGPTL3 (rhANGPTL3) (SEQ ID NO:1).
T1 chain: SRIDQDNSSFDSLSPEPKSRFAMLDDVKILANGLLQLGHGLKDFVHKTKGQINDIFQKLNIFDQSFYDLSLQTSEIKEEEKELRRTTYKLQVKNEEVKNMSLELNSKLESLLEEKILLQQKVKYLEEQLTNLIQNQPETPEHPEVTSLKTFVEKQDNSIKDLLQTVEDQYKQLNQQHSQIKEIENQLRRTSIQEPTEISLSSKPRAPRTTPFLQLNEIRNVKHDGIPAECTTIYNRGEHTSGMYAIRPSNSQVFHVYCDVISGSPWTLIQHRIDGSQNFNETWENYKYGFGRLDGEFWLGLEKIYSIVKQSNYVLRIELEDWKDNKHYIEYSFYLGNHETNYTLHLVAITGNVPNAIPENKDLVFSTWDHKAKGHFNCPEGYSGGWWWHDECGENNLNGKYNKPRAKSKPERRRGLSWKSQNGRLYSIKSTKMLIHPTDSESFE

B1: bovine LPL (protein)
chain: DRITGGKDFRDIESKFALRTPEDTAEDTCHLIPGVTESVANCHFNHSSKTFVVIHGWTVTGMYESWVPKLVAALYKREPDSNVIVVDWLSRAQQHYPVSAGYTKLVGQDVAKFMNWMADEFNYPLGNVHLLGYSLGAHAAGIAGSLTNKKVNRITGLDPAGPNFEYAEAPSRLSPDDADFVDVLHTFTRGSPGRSIGIQKPVGHVDIYPNGGTFQPGCNIGEALRVIAERGLGDVDQLVKCSHERSVHLFIDSLLNEENPSKAYRCNSKEAFEKGLCLSCRKNRCNNMGYEINKVRAKRSSKMYLKTRSQMPYKVFHYQVKIHFSGTESNTYTNQAFEISLYGTVAESENIPFTLPEVSTNKTYSFLLYTEVDIGELLMLKLKWISDSYFSWSNWWSSPGFDIGKIRVKAGETQKKVIFCSREKMSYLQKGKSPVIFVKCHDKSLNRKSG
Consider B1, for which the “in vitro enzymatic activity of lipoprotein lipase (LPL), EnzChek Lipase substrate” value was “The activity of bovine LPL is inhibited by addition of recombinant hANGPTL3 (rhANGPTL3)”.
